Reference: paper PMC8784642

Molecular target: Thermoanaerobacter italicus TagA^FL∗ (residues M1-R244, I203E/L209Q/L212K/I216E), solubility-enhanced TagA (Thermoanaerobacter italicus)
Test: AUC

In the case of “Thermoanaerobacter italicus TagA^FL∗ (residues M1-R244, I203E/L209Q/L212K/I216E), solubility-enhanced TagA (enzyme)”, the Kd is reported as 210 µM and the stoichiometry N is reported as 2.
